In patent US20130336893A1 (Sanofi, published 2013):
*1 amine or outer side, *2 acyl side, *3 side chain or, on linkers, in order; H or OH if unused. Where no end group is shown, it is not given here. Side-chain parts run from the residue outwards. [ ]: non-standard residue; d: D form. The star is where a group is joined. γGlu = O=C(O)[C@H](CCC(=O)[*:2])N[*:1]; Palmitoyl = CCCCCCCCCCCCCCCC(=O)*; Aib = CC(C)(N)C(=O)O

B1: SEQ ID NO: (74) (peptide)
peptide: H[dS]QGTFTSDLSKQMESRRAQDFIEWLKNTGPSSGAPPPSK([γGlu-Palmitoyl])-NH2
modifications: N-terminus assumed
SMILES: CCCCCCCCCCCCCCCC(=O)N[C@@H](CCC(=O)NCCCC[C@H](NC(=O)[C@H](CO)NC(=O)[C@@H]1CCCN1C(=O)[C@@H]1CCCN1C(=O)[C@@H]1CCCN1C(=O)[C@H](C)NC(=O)CNC(=O)[C@H](CO)NC(=O)[C@H](CO)NC(=O)[C@@H]1CCCN1C(=O)CNC(=O)[C@@H](NC(=O)[C@H](CC(N)=O)NC(=O)[C@H](CCCCN)NC(=O)[C@H](CC(C)C)NC(=O)[C@H](Cc1c[nH]c2ccccc12)NC(=O)[C@H](CCC(=O)O)NC(=O)[C@@H](NC(=O)[C@H](Cc1ccccc1)NC(=O)[C@H](CC(=O)O)NC(=O)[C@H](CCC(N)=O)NC(=O)[C@H](C)NC(=O)[C@H](CCCNC(=N)N)NC(=O)[C@H](CCCNC(=N)N)NC(=O)[C@H](CO)NC(=O)[C@H](CCC(=O)O)NC(=O)[C@H](CCSC)NC(=O)[C@H](CCC(N)=O)NC(=O)[C@H](CCCCN)NC(=O)[C@H](CO)NC(=O)[C@H](CC(C)C)NC(=O)[C@H](CC(=O)O)NC(=O)[C@H](CO)NC(=O)[C@@H](NC(=O)[C@H](Cc1ccccc1)NC(=O)[C@@H](NC(=O)CNC(=O)[C@H](CCC(N)=O)NC(=O)[C@@H](CO)NC(=O)[C@@H](N)Cc1c[nH]cn1)[C@@H](C)O)[C@@H](C)O)[C@@H](C)CC)[C@@H](C)O)C(N)=O)C(=O)O
B2: SEQ ID NO: (77) (peptide)
peptide: H[dS]QGTFTSDLSKQMESRRAQDFIEWLKKGGPSSGAPPPSK([γGlu-Palmitoyl])-NH2
modifications: N-terminus assumed
SMILES: CCCCCCCCCCCCCCCC(=O)N[C@@H](CCC(=O)NCCCC[C@H](NC(=O)[C@H](CO)NC(=O)[C@@H]1CCCN1C(=O)[C@@H]1CCCN1C(=O)[C@@H]1CCCN1C(=O)[C@H](C)NC(=O)CNC(=O)[C@H](CO)NC(=O)[C@H](CO)NC(=O)[C@@H]1CCCN1C(=O)CNC(=O)CNC(=O)[C@H](CCCCN)NC(=O)[C@H](CCCCN)NC(=O)[C@H](CC(C)C)NC(=O)[C@H](Cc1c[nH]c2ccccc12)NC(=O)[C@H](CCC(=O)O)NC(=O)[C@@H](NC(=O)[C@H](Cc1ccccc1)NC(=O)[C@H](CC(=O)O)NC(=O)[C@H](CCC(N)=O)NC(=O)[C@H](C)NC(=O)[C@H](CCCNC(=N)N)NC(=O)[C@H](CCCNC(=N)N)NC(=O)[C@H](CO)NC(=O)[C@H](CCC(=O)O)NC(=O)[C@H](CCSC)NC(=O)[C@H](CCC(N)=O)NC(=O)[C@H](CCCCN)NC(=O)[C@H](CO)NC(=O)[C@H](CC(C)C)NC(=O)[C@H](CC(=O)O)NC(=O)[C@H](CO)NC(=O)[C@@H](NC(=O)[C@H](Cc1ccccc1)NC(=O)[C@@H](NC(=O)CNC(=O)[C@H](CCC(N)=O)NC(=O)[C@@H](CO)NC(=O)[C@@H](N)Cc1c[nH]cn1)[C@@H](C)O)[C@@H](C)O)[C@@H](C)CC)C(N)=O)C(=O)O
B3: SEQ ID NO: (69) (peptide)
peptide: H[dS]QGTFTSDLSKQMDKRRAQDFIEWLKNGGPSSGAPPPSK([γGlu-Palmitoyl])-NH2
modifications: N-terminus assumed
SMILES: CCCCCCCCCCCCCCCC(=O)N[C@@H](CCC(=O)NCCCC[C@H](NC(=O)[C@H](CO)NC(=O)[C@@H]1CCCN1C(=O)[C@@H]1CCCN1C(=O)[C@@H]1CCCN1C(=O)[C@H](C)NC(=O)CNC(=O)[C@H](CO)NC(=O)[C@H](CO)NC(=O)[C@@H]1CCCN1C(=O)CNC(=O)CNC(=O)[C@H](CC(N)=O)NC(=O)[C@H](CCCCN)NC(=O)[C@H](CC(C)C)NC(=O)[C@H](Cc1c[nH]c2ccccc12)NC(=O)[C@H](CCC(=O)O)NC(=O)[C@@H](NC(=O)[C@H](Cc1ccccc1)NC(=O)[C@H](CC(=O)O)NC(=O)[C@H](CCC(N)=O)NC(=O)[C@H](C)NC(=O)[C@H](CCCNC(=N)N)NC(=O)[C@H](CCCNC(=N)N)NC(=O)[C@H](CCCCN)NC(=O)[C@H](CC(=O)O)NC(=O)[C@H](CCSC)NC(=O)[C@H](CCC(N)=O)NC(=O)[C@H](CCCCN)NC(=O)[C@H](CO)NC(=O)[C@H](CC(C)C)NC(=O)[C@H](CC(=O)O)NC(=O)[C@H](CO)NC(=O)[C@@H](NC(=O)[C@H](Cc1ccccc1)NC(=O)[C@@H](NC(=O)CNC(=O)[C@H](CCC(N)=O)NC(=O)[C@@H](CO)NC(=O)[C@@H](N)Cc1c[nH]cn1)[C@@H](C)O)[C@@H](C)O)[C@@H](C)CC)C(N)=O)C(=O)O
B4: SEQ ID NO: (76) (peptide)
peptide: H[dS]QGTFTSDLSKQMESRRAQDFIEWLKR[dA]GPSSGAPPPSK([γGlu-Palmitoyl])-NH2
modifications: N-terminus assumed
SMILES: CCCCCCCCCCCCCCCC(=O)N[C@@H](CCC(=O)NCCCC[C@H](NC(=O)[C@H](CO)NC(=O)[C@@H]1CCCN1C(=O)[C@@H]1CCCN1C(=O)[C@@H]1CCCN1C(=O)[C@H](C)NC(=O)CNC(=O)[C@H](CO)NC(=O)[C@H](CO)NC(=O)[C@@H]1CCCN1C(=O)CNC(=O)[C@@H](C)NC(=O)[C@H](CCCNC(=N)N)NC(=O)[C@H](CCCCN)NC(=O)[C@H](CC(C)C)NC(=O)[C@H](Cc1c[nH]c2ccccc12)NC(=O)[C@H](CCC(=O)O)NC(=O)[C@@H](NC(=O)[C@H](Cc1ccccc1)NC(=O)[C@H](CC(=O)O)NC(=O)[C@H](CCC(N)=O)NC(=O)[C@H](C)NC(=O)[C@H](CCCNC(=N)N)NC(=O)[C@H](CCCNC(=N)N)NC(=O)[C@H](CO)NC(=O)[C@H](CCC(=O)O)NC(=O)[C@H](CCSC)NC(=O)[C@H](CCC(N)=O)NC(=O)[C@H](CCCCN)NC(=O)[C@H](CO)NC(=O)[C@H](CC(C)C)NC(=O)[C@H](CC(=O)O)NC(=O)[C@H](CO)NC(=O)[C@@H](NC(=O)[C@H](Cc1ccccc1)NC(=O)[C@@H](NC(=O)CNC(=O)[C@H](CCC(N)=O)NC(=O)[C@@H](CO)NC(=O)[C@@H](N)Cc1c[nH]cn1)[C@@H](C)O)[C@@H](C)O)[C@@H](C)CC)C(N)=O)C(=O)O
B5: SEQ ID NO: (70) (peptide)
peptide: H[dS]QGTFTSDLSKQMDERRAKDFIEWLKNGGPSSGAPPPSK([γGlu-Palmitoyl])-NH2
modifications: N-terminus assumed
SMILES: CCCCCCCCCCCCCCCC(=O)N[C@@H](CCC(=O)NCCCC[C@H](NC(=O)[C@H](CO)NC(=O)[C@@H]1CCCN1C(=O)[C@@H]1CCCN1C(=O)[C@@H]1CCCN1C(=O)[C@H](C)NC(=O)CNC(=O)[C@H](CO)NC(=O)[C@H](CO)NC(=O)[C@@H]1CCCN1C(=O)CNC(=O)CNC(=O)[C@H](CC(N)=O)NC(=O)[C@H](CCCCN)NC(=O)[C@H](CC(C)C)NC(=O)[C@H](Cc1c[nH]c2ccccc12)NC(=O)[C@H](CCC(=O)O)NC(=O)[C@@H](NC(=O)[C@H](Cc1ccccc1)NC(=O)[C@H](CC(=O)O)NC(=O)[C@H](CCCCN)NC(=O)[C@H](C)NC(=O)[C@H](CCCNC(=N)N)NC(=O)[C@H](CCCNC(=N)N)NC(=O)[C@H](CCC(=O)O)NC(=O)[C@H](CC(=O)O)NC(=O)[C@H](CCSC)NC(=O)[C@H](CCC(N)=O)NC(=O)[C@H](CCCCN)NC(=O)[C@H](CO)NC(=O)[C@H](CC(C)C)NC(=O)[C@H](CC(=O)O)NC(=O)[C@H](CO)NC(=O)[C@@H](NC(=O)[C@H](Cc1ccccc1)NC(=O)[C@@H](NC(=O)CNC(=O)[C@H](CCC(N)=O)NC(=O)[C@@H](CO)NC(=O)[C@@H](N)Cc1c[nH]cn1)[C@@H](C)O)[C@@H](C)O)[C@@H](C)CC)C(N)=O)C(=O)O
B6: SEQ ID NO: (75) (peptide)
peptide: H[dS]QGTFTSDLSKQMESRRAQDFIEWLKRGGPSSGAPPPSK([γGlu-Palmitoyl])-NH2
modifications: N-terminus assumed
SMILES: CCCCCCCCCCCCCCCC(=O)N[C@@H](CCC(=O)NCCCC[C@H](NC(=O)[C@H](CO)NC(=O)[C@@H]1CCCN1C(=O)[C@@H]1CCCN1C(=O)[C@@H]1CCCN1C(=O)[C@H](C)NC(=O)CNC(=O)[C@H](CO)NC(=O)[C@H](CO)NC(=O)[C@@H]1CCCN1C(=O)CNC(=O)CNC(=O)[C@H](CCCNC(=N)N)NC(=O)[C@H](CCCCN)NC(=O)[C@H](CC(C)C)NC(=O)[C@H](Cc1c[nH]c2ccccc12)NC(=O)[C@H](CCC(=O)O)NC(=O)[C@@H](NC(=O)[C@H](Cc1ccccc1)NC(=O)[C@H](CC(=O)O)NC(=O)[C@H](CCC(N)=O)NC(=O)[C@H](C)NC(=O)[C@H](CCCNC(=N)N)NC(=O)[C@H](CCCNC(=N)N)NC(=O)[C@H](CO)NC(=O)[C@H](CCC(=O)O)NC(=O)[C@H](CCSC)NC(=O)[C@H](CCC(N)=O)NC(=O)[C@H](CCCCN)NC(=O)[C@H](CO)NC(=O)[C@H](CC(C)C)NC(=O)[C@H](CC(=O)O)NC(=O)[C@H](CO)NC(=O)[C@@H](NC(=O)[C@H](Cc1ccccc1)NC(=O)[C@@H](NC(=O)CNC(=O)[C@H](CCC(N)=O)NC(=O)[C@@H](CO)NC(=O)[C@@H](N)Cc1c[nH]cn1)[C@@H](C)O)[C@@H](C)O)[C@@H](C)CC)C(N)=O)C(=O)O

Molecular target: human GLP-1 receptor (human, UniProt P43220 24-463)
Experiment: cell-based or functional assay

Row | Binder | EC50 hGLP-1R (cAMP formation) [nM]
1 | B1 | 0.0396
2 | H[dS]QGTFTSDLSKQMESRRAQDFIEWLK[Aib]GGPSSGAPPPSK([γGlu-Palmitoyl])-NH2 [SEQ ID NO: (73)] | 0.0044
3 | B2 | 0.003
4 | B3 | 0.0076
5 | B4 | 0.0048
6 | B5 | 0.005
7 | B6 | 0.0046

Molecular target: human glucagon receptor (human, UniProt P47871 26-477)
Sequence (P47871 26-477): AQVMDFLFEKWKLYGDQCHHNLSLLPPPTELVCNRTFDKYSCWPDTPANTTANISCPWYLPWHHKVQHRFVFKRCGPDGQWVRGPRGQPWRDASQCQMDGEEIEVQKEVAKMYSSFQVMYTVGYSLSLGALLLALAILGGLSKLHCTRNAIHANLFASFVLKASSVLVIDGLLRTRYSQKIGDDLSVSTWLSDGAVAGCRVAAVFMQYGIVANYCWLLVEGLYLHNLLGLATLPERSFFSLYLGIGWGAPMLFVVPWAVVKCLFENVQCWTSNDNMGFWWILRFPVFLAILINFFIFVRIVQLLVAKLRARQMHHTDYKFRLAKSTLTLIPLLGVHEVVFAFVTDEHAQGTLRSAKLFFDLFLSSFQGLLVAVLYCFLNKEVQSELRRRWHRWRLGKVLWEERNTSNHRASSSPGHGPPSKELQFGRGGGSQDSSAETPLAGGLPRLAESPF
Experiment: cell-based or functional assay

Row | Binder | EC50 hGlucagonR (cAMP formation) [nM]
8 | B1 | 0.0355
9 | H[dS]QGTFTSDLSKQMESRRAQDFIEWLK[Aib]GGPSSGAPPPSK([γGlu-Palmitoyl])-NH2 [SEQ ID NO: (73)] | 0.0212
10 | B2 | 0.0372
11 | B3 | 0.0059
12 | B4 | 0.0741
13 | B5 | 0.0172
14 | B6 | 0.0641
